# Assay results taken from the supplement of paper PMC9112550, “Optimization of the antimicrobial peptide Bac7 by deep mutational scanning” (BMC Biology, 2022).
# System: Escherichia coli TOP10
# Assay: shrunken log2 fold change of peptide-encoding DNA abundance (4.5 h post-induction vs induction); higher = less antimicrobial activity (less host growth inhibition)
# Conditions: time post-induction: 4.5 h; library: site-saturation at positions 5, 18, 19, 20
# 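Further: peptides expressed intracellularly from a pBAD plasmid library in pooled LB shake-flask culture, induced with 0.3% L-arabinose, DNA abundance read by NGS, three biological replicates, DESeq2 with apeglm shrinkage.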
row,Sequence,shrunken log2 fold change
1,RRIRSRPPRLPRPRPRPMWCPRP,0.136
2,RRIRYRPPRLPRPRPRPCRIPRP,-0.0823
3,RRIRARPPRLPRPRPRPMFEPRP,0.3
4,RRIRMRPPRLPRPRPRPHQRPRP,0.236
5,RRIRGRPPRLPRPRPRPMRWPRP,0.844
6,RRIRTRPPRLPRPRPRPMIKPRP,-0.103
7,RRIRSRPPRLPRPRPRPSICPRP,-0.0672
8,RRIRFRPPRLPRPRPRPVMMPRP,-0.43
9,RRIRVRPPRLPRPRPRPHMLPRP,-0.311
10,RRIRTRPPRLPRPRPRPCTRPRP,-0.287
11,RRIRGRPPRLPRPRPRPYHCPRP,-0.0643
12,RRIRWRPPRLPRPRPRPDRNPRP,0.0394
13,RRIRPRPPRLPRPRPRPQTIPRP,-0.0413
14,RRIRSRPPRLPRPRPRPFVYPRP,-0.368
15,RRIRGRPPRLPRPRPRPEWCPRP,1.19
16,RRIRPRPPRLPRPRPRPHQVPRP,0.341
17,RRIRLRPPRLPRPRPRPGDKPRP,0.00262
18,RRIRVRPPRLPRPRPRPRKEPRP,-0.0286
19,RRIRHRPPRLPRPRPRPGKMPRP,-0.423
20,RRIRTRPPRLPRPRPRPKWAPRP,0.0541
21,RRIRQRPPRLPRPRPRPELIPRP,-0.017
22,RRIRDRPPRLPRPRPRPFETPRP,-0.0134
23,RRIRSRPPRLPRPRPRPALYPRP,-0.124
24,RRIRYRPPRLPRPRPRPHLHPRP,-1.12
25,RRIRDRPPRLPRPRPRPDFFPRP,0.195

row,Sequence,shrunken log2 fold change
1,RRIRMRPPRLPRPRPRPEQNPRP,2.47
2,RRIRARPPRLPRPRPRPQWTPRP,0.164
3,RRIRIRPPRLPRPRPRPDWNPRP,-0.993
4,RRIRHRPPRLPRPRPRPVNVPRP,0.0798
5,RRIRARPPRLPRPRPRPFWGPRP,0.0148
6,RRIRERPPRLPRPRPRPMTRPRP,-0.00264
7,RRIRQRPPRLPRPRPRPTINPRP,-0.362
8,RRIRFRPPRLPRPRPRPLGLPRP,-0.0983
9,RRIRTRPPRLPRPRPRPEWIPRP,0.0842
10,RRIRNRPPRLPRPRPRPLAGPRP,0.148
11,RRIRHRPPRLPRPRPRPHPMPRP,-0.076
12,RRIRARPPRLPRPRPRPKYHPRP,-0.103
13,RRIRDRPPRLPRPRPRPWFIPRP,-0.157
14,RRIRKRPPRLPRPRPRPDKWPRP,0.429
15,RRIRVRPPRLPRPRPRPLWCPRP,-0.303
16,RRIRQRPPRLPRPRPRPNKRPRP,0.0702
17,RRIRNRPPRLPRPRPRPIFPPRP,-0.281
18,RRIRERPPRLPRPRPRPEMFPRP,0.232
19,RRIRRRPPRLPRPRPRPKHNPRP,0.396
20,RRIRIRPPRLPRPRPRPYDQPRP,-0.295
21,RRIRDRPPRLPRPRPRPVWTPRP,0.0494
22,RRIRYRPPRLPRPRPRPVGWPRP,0.344
23,RRIRARPPRLPRPRPRPMRSPRP,0.0669
24,RRIRKRPPRLPRPRPRPNSKPRP,0.0385
25,RRIRVRPPRLPRPRPRPPGAPRP,0.595

row,Sequence,shrunken log2 fold change
1,RRIRHRPPRLPRPRPRPYTMPRP,-0.393
2,RRIRARPPRLPRPRPRPYTDPRP,-0.785
3,RRIRKRPPRLPRPRPRPQVDPRP,0.288
4,RRIRYRPPRLPRPRPRPWAPPRP,-0.289
5,RRIRFRPPRLPRPRPRPWWLPRP,-0.0533
6,RRIRYRPPRLPRPRPRPIGGPRP,-0.4
7,RRIRLRPPRLPRPRPRPEQLPRP,0.131
8,RRIRHRPPRLPRPRPRPGWDPRP,0.18
9,RRIRWRPPRLPRPRPRPDHEPRP,-0.0396
10,RRIRRRPPRLPRPRPRPTRCPRP,0.661
11,RRIRMRPPRLPRPRPRPEMFPRP,2.24
12,RRIRIRPPRLPRPRPRPLYHPRP,-0.761
13,RRIRRRPPRLPRPRPRPLMEPRP,-0.0263
14,RRIRIRPPRLPRPRPRPWHIPRP,0.0542
15,RRIRCRPPRLPRPRPRPSFCPRP,-0.559
16,RRIRCRPPRLPRPRPRPYCKPRP,-0.894
17,RRIRERPPRLPRPRPRPNQLPRP,-0.0673
18,RRIRQRPPRLPRPRPRPKSLPRP,-0.0933
19,RRIRHRPPRLPRPRPRPGQLPRP,0.174
20,RRIRGRPPRLPRPRPRPQPPPRP,0.998
21,RRIRHRPPRLPRPRPRPEAEPRP,0.409
22,RRIRARPPRLPRPRPRPYWWPRP,-0.195
23,RRIRLRPPRLPRPRPRPECGPRP,0.372
24,RRIRRRPPRLPRPRPRPQEWPRP,-0.0466
25,RRIRARPPRLPRPRPRPRNKPRP,0.271

row,Sequence,shrunken log2 fold change
1,RRIRERPPRLPRPRPRPLGYPRP,-0.39
2,RRIRCRPPRLPRPRPRPCLGPRP,-0.224
3,RRIRIRPPRLPRPRPRPGAVPRP,0.28
4,RRIRCRPPRLPRPRPRPKINPRP,-0.645
5,RRIRQRPPRLPRPRPRPVMKPRP,-0.212
6,RRIRCRPPRLPRPRPRPTLKPRP,0.017
7,RRIRPRPPRLPRPRPRPSSTPRP,-0.315
8,RRIRQRPPRLPRPRPRPLQWPRP,0.123
9,RRIRVRPPRLPRPRPRPYKNPRP,-0.848
10,RRIRFRPPRLPRPRPRPEHRPRP,0.105
11,RRIRIRPPRLPRPRPRPLYCPRP,-0.744
12,RRIRDRPPRLPRPRPRPLQLPRP,-0.0775
13,RRIRNRPPRLPRPRPRPVKAPRP,-0.0518
14,RRIRHRPPRLPRPRPRPNSDPRP,-0.0908
15,RRIRPRPPRLPRPRPRPTGAPRP,0.55
16,RRIRFRPPRLPRPRPRPQHLPRP,-1.22
17,RRIRCRPPRLPRPRPRPAMGPRP,-0.0638
18,RRIRERPPRLPRPRPRPSYLPRP,-1.2
19,RRIRCRPPRLPRPRPRPTFAPRP,0.359
20,RRIRGRPPRLPRPRPRPRAFPRP,0.793
21,RRIRSRPPRLPRPRPRPFQDPRP,-0.01
22,RRIRLRPPRLPRPRPRPHNNPRP,-0.847
23,RRIRHRPPRLPRPRPRPAPTPRP,0.294
24,RRIRFRPPRLPRPRPRPKKHPRP,-0.264
25,RRIRPRPPRLPRPRPRPHWHPRP,-0.124

row,Sequence,shrunken log2 fold change
1,RRIRNRPPRLPRPRPRPMKQPRP,0.0238
2,RRIRQRPPRLPRPRPRPIDGPRP,0.0784
3,RRIRGRPPRLPRPRPRPVKLPRP,-0.0292
4,RRIRVRPPRLPRPRPRPSWWPRP,0.0465
5,RRIRHRPPRLPRPRPRPLYEPRP,-0.211
6,RRIRFRPPRLPRPRPRPSVKPRP,-0.347
7,RRIRTRPPRLPRPRPRPYNWPRP,-0.143
8,RRIRGRPPRLPRPRPRPGYNPRP,0.0217
9,RRIRVRPPRLPRPRPRPSPSPRP,-0.017
10,RRIRNRPPRLPRPRPRPMQTPRP,-0.00987
11,RRIRDRPPRLPRPRPRPAEEPRP,0.168
12,RRIRDRPPRLPRPRPRPYGAPRP,0.00308
13,RRIRDRPPRLPRPRPRPLWNPRP,0.0619
14,RRIRMRPPRLPRPRPRPCWSPRP,0.349
15,RRIRRRPPRLPRPRPRPVLTPRP,0.386
16,RRIRLRPPRLPRPRPRPYLMPRP,-0.69
17,RRIRGRPPRLPRPRPRPDTGPRP,-0.0756
18,RRIRCRPPRLPRPRPRPPTDPRP,0.298
19,RRIRHRPPRLPRPRPRPRWMPRP,-0.209
20,RRIRPRPPRLPRPRPRPMHYPRP,-0.336
21,RRIRGRPPRLPRPRPRPWYFPRP,-0.417
22,RRIRIRPPRLPRPRPRPCRTPRP,-0.333
23,RRIRRRPPRLPRPRPRPQFDPRP,0.107
24,RRIRGRPPRLPRPRPRPGVWPRP,1.22
25,RRIRYRPPRLPRPRPRPTFRPRP,-0.0396

row,Sequence,shrunken log2 fold change
1,RRIRRRPPRLPRPRPRPMINPRP,-0.157
2,RRIRLRPPRLPRPRPRPFATPRP,-0.0878
3,RRIRIRPPRLPRPRPRPIKYPRP,-2.06
4,RRIRLRPPRLPRPRPRPDCQPRP,0.153
5,RRIRRRPPRLPRPRPRPETNPRP,0.596
6,RRIRWRPPRLPRPRPRPSQDPRP,0.22
7,RRIRCRPPRLPRPRPRPQKWPRP,-0.568
8,RRIRYRPPRLPRPRPRPYGAPRP,-0.202
9,RRIRHRPPRLPRPRPRPHSNPRP,-0.167
10,RRIRERPPRLPRPRPRPPQKPRP,-0.0624
11,RRIRFRPPRLPRPRPRPMDKPRP,-0.301
12,RRIRTRPPRLPRPRPRPRETPRP,0.511
13,RRIRERPPRLPRPRPRPESNPRP,-0.65
14,RRIRSRPPRLPRPRPRPRFGPRP,0.342
15,RRIRMRPPRLPRPRPRPTRDPRP,0.314
16,RRIRVRPPRLPRPRPRPEACPRP,0.11
17,RRIRSRPPRLPRPRPRPPKQPRP,-0.215
18,RRIRNRPPRLPRPRPRPTVMPRP,0.178
19,RRIRNRPPRLPRPRPRPYFYPRP,-0.345
20,RRIRYRPPRLPRPRPRPSDMPRP,-0.00973
21,RRIRARPPRLPRPRPRPVRAPRP,0.924
22,RRIRVRPPRLPRPRPRPHQSPRP,-0.23
23,RRIRNRPPRLPRPRPRPTCSPRP,-0.261
24,RRIRLRPPRLPRPRPRPQRIPRP,-0.141
25,RRIRPRPPRLPRPRPRPITMPRP,-0.238
